In paper PMC7683652 (Nature Communications, 2020):

Molecular target: the molecule itself
Assay: SEC; size exclusion chromatography of the truncated TDP-43 proteins against molecular weight standards (Supplementary Fig. 3a); conditions not shown

B1: TDP-43 N-terminal region (aa 1-100) (domain or fragment, UniProt Q13148 1-100, looked up)
chain: MSEYIRVTEDENDEPIEIPSEDDGTVLLSTVTAQFPGACGLRYRNPVSQCMRGVRLVEGILHAPDAGWGNLVYVVNYPKDNKRKMDETDASSAVKVKRAV
notes: the methods say aa; 1-101; calculated 12.5 kDa; C-terminal limit is printed as 100 (results, legend) and as 101 (methods); also called N-terminal TDP-43; source: E. coli M15 (pQE30), purified (Ni-NTA)
  stoichiometry N: 2
